Test results taken from US20190022241A1 (AbbVie / Abbott, published 2019).
Residue numbers refer to the chain shown, from its start.

T1: rat SEZ6 on RIN-m5F cells (rat, UniProt Q7TSK2 20-991 (mouse entry))
T1 construct: endogenous on RIN-m5F cells; also called rSEZ6
T1 chain: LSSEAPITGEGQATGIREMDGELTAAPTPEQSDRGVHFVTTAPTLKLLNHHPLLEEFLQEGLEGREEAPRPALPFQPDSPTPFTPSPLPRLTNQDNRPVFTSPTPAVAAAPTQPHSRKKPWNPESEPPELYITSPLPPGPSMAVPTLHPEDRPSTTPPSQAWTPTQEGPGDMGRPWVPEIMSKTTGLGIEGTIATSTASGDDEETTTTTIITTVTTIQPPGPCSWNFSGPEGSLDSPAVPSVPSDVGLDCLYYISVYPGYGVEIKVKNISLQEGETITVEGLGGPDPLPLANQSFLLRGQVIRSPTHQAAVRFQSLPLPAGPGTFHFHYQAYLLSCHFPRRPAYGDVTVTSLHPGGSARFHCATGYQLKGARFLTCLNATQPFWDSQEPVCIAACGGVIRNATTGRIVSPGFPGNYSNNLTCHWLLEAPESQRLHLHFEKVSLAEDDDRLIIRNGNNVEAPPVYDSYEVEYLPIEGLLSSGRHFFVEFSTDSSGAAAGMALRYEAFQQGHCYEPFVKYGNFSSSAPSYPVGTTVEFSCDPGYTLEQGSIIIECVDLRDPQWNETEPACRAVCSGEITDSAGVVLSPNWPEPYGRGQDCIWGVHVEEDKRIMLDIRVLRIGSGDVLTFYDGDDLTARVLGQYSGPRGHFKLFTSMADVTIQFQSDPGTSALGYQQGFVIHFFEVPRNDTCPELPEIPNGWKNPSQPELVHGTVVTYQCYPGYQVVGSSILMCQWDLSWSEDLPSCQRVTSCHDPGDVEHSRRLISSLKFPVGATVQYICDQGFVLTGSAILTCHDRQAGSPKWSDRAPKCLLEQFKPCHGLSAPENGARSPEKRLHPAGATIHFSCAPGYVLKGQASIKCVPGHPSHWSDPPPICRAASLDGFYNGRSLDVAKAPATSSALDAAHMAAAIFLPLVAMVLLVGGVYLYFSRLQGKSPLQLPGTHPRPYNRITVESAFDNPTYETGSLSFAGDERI

T2: SEZ6 N1 (amino acids 1-70) on yeast (human, UniProt Q53EL9 20-89)
T2 construct: yeast display
T2 sequence: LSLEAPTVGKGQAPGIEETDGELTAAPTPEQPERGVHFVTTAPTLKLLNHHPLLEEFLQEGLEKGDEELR

T3: human SEZ6L ECD-His (human, UniProt Q9BYH1 29-955)
T3 construct: whole entry named
T3 sequence: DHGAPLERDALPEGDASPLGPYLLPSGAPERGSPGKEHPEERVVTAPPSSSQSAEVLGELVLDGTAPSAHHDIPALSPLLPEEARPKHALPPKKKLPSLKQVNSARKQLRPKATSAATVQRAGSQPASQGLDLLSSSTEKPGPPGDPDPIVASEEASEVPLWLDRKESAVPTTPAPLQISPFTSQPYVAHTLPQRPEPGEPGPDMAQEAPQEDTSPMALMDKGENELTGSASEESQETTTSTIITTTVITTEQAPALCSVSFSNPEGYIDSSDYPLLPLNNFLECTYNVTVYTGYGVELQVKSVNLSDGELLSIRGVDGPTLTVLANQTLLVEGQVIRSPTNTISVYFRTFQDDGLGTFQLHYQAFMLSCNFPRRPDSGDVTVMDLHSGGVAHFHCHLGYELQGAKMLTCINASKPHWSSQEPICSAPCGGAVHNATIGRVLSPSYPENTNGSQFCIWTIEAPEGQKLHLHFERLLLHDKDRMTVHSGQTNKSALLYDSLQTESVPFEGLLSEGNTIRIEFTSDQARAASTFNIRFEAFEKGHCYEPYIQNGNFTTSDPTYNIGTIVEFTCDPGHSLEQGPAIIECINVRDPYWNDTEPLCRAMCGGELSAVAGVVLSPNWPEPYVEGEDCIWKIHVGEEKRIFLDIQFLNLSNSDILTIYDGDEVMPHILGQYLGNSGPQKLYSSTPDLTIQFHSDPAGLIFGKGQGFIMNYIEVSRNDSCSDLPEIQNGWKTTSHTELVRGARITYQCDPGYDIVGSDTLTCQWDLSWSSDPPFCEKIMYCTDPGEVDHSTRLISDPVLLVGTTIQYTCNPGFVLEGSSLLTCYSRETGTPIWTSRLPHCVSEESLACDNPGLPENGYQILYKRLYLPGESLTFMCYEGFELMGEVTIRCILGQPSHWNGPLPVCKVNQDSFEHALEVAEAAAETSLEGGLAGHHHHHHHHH

B1: SC17.49 (antibody, V domains shown)
VH: QVQLQQSGAELVRPGASVTLSCKASGYTFTDYEMHWVKQTPVHGLEWIGGIDPETGGTAYNQKFKGKATLTADKSSSTAYMELRSLTSEDSAVYFCTRWFSYWGPGTLVTVSA
VL: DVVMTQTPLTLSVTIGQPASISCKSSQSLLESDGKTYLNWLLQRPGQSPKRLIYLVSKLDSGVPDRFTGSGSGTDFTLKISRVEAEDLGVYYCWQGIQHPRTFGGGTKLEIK
notes: murine mAb
B2: SC17.45 (antibody, V domains shown)
VH: QVQLQQPGSVLVRPGDSVKLSCKASGYTFTSYWMHWVKQSPGQGLEWIGEIHPHSGSTNYNEKFKGKATLTVDTSSSTAYVDLSSLTSEDSAVYYCVGGHYDYWGQGTTLTVSS
VL: ENVLTQSPAIMSASPGEKVTMTCSASSSVNYMYWYQQKSSTSPKLWIYDTSKLTSGVPGRFSGSGSGNSYSLTISNMEAEDVATYYCFQGSGYPLTFGSGTKLEIK
notes: murine mAb
B3: SC17.4 (antibody, V domains shown)
VH: QIQLVQSGPELKKPGETVKISCKASGYTFTDYSMHWVKQAPGKGLKWLGWINTETGEPTYSEDFKGRFAFSLETSASTAYLQINNLKNEDTATYFCVKNKGWFAYWGQGTLVTVSA
VL: DIKMTQSPSSMYASLGERVTITCKASQDINSYLTWFQQKPGKSPKTLIYRANRLIDGVPSRFSGSGSGQDYSLTISSLDYEDMGIYYCLQYDDFPWTFGGGTKLEIK
notes: murine mAb
B4: SC17.82 (antibody, V domains shown)
VH: EVQLQQSGPELVKPGASVKMSCKASGYTFTDSYMNWVKQSHGKSLEWIGRVNPNNGGASYNHKFKGKATLTVDKSLSTAYMRLNSLTSEDSAVYYCSRSGDLYYYAMDYWGQGTSVTVSS
VL: QIVLTQSPAIMSASLGEEITLTCSASSSVSYMHWYQQKSGTSPKLLIYSTSNLASGVPSRFSGSGSGTFYSLTISSVEAEDAADYYCHQWSSFTFGSGTKLEIK
notes: murine mAb
B5: SC17.87 (antibody, V domains shown)
VH: EVQLQQSGAELLKPGASVKLSCTASGLNIKDYYIHWVYQRPEQGLEWIGRIDPESDNTLYDPKFQGKASITADTSSNTAYLQLSSLTSEDTAVYYCTTNTPFAYWGQGTLVTVST
VL: DVVMTQTPLSLPVSLGDQASISCRSSQSLVHSNGNTYLHWYLQKPGQSPKLLISKVSNRFSGVPDRFSGSGSGTDFTLKISRVEAEDLGVYFCSQSTHVPPMFGGGTRLEIK
notes: murine mAb
B6: SC17.97 (antibody, V domains shown)
VH: QVQLPQSGAELAKPGASVKISCKASGFTFTSYWMHWVKQRPGQGLEWIGYINPSTDYTEYNQKFKDKATLTADKSSSTAYMQLGSLTSEDSAVYYCARSSYGSSPFDYWGQGSTLTVSS
VL: B5 VL with S32N, K50N, S54Y, R82I, V90L, P101R, M102T, R108K
notes: murine mAb
B7: SC17.200 (antibody, V domains shown)
VH: QVQLQQSGPELVKPGASVKISCKASGYAFSSSWINWVKQRPGQGLEWIGRIYPGEGDTNYSGNFEGKATLTADKSSTTAYMQLSSLTSVDSAVYFCTRGLVMDYWGQGTALTVSS
VL: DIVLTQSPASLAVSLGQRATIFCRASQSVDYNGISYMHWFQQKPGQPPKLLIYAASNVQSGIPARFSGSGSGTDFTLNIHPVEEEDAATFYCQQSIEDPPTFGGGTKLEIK
notes: murine mAb
B8: SC17.187 (antibody, V domains shown)
VH: EVHLQQSGPELVNPGSSVKISCKAAGYTFTDYNMDWVKQSHGKRLEWIGNIYPNNGGAGYNQNFKDKATLTVDKSSSTAYMELRSLTSEDSAVYYCARSITAAWFAYWGQGTLVTVSA
VL: B3 VL with I21L, T34S, K45E, D79E, D93E, W96P
notes: murine mAb
B9: hSC17.28 (antibody, human IgG1, V domains shown)
VH: QVQLVQSGAEVKKPGASVKVSCKASGYTFTRSYIHWVRQAPGQGLEWMGYISSGSGGTTYNQKFKGRVTSTRDTSISTAYMELSRLRSDDTAVYYCARGGVRYFDVWGQGTTVTVSS
VL: EIVLTQSPDFQSVTPKEKVTITCRASQSIGTSIHWYQQKPDQSPKLLIKYASESISGVPSRFSGSGSGTDFTLTINSLEAEDAATYYCQQSNSWPLTFGQGTKLEIK
notes: humanized, human IgG1/kappa
B10: hSC17.34 (antibody, human IgG1, V domains shown)
VH: QVQLVQSGAEVKKPGASVKVSCKASGYTFTDYNMDWVRQAPGQRLEWIGYIYPDNGGAGYNQKFKGRVTITVDTSASTAYMELSSLRSEDTAVYYCSRSITTAWFAYWGQGTLVTVSS
VL: DIQMTQSPSSLSASVGDRVTITCKASQDINSYLSWFQQKPGKAPKSLIYRANRLVDGVPSRFSGSGSGTDYTLTISSLQPEDFATYYCLQYDEFPPTFGQGTKLEIK
notes: humanized, human IgG1/kappa
B11: hSC17.17 (antibody, human IgG1, V domains shown)
VH: QVQLVQSGAEVKKPGASVKVSCKASGYTFTDYNMHWVRQAPGQGLEWMGEINPNIGGTGYNQKFKGRVTMTRDTSISTAYMELSRLRSDDTAVYYCARTYSYYSYEFAYWGQGTLVTVSS
VL: EIVLTQSPATLSLSPGERATLSCSASSSVSYMHWYQQKPGQAPRLLIYDTSKLPSGIPARFSGSGSGTDFTLTISSLEPEDFAVYYCQQWSSTPPTFGQGTKLEIK
notes: humanized, human IgG1/kappa
B12: hSC17.16 (antibody, human IgG1, V domains shown)
VH: QVQLVQSGAEVKKPGASVKVSCKASGYTFTDYNMYWVRQAPGQGLEWMGEINPNNGGTAYNQKFRGKVTMTRDTSISTAYMELSRLRSDDTAVYYCARYDKGFDYWGQGTTVTVSS
VL: DIQMTQSPSSLSASVGDRVTITCRASANINSNLVWYQQKPGKAPKLLIYAATNLADGVPSRFSGSGSGTDFTLTISSLQPEDFATYYCQHFWGTPRTFGGGTKLEIK
notes: humanized; human IgG1 heavy and human kappa light constant regions
B13: hSC17.46 (antibody, human IgG1, V domains shown)
VH: QVQLVQSGAEVKKPGASVKVSCKASGYTFTSYWINWVRQAPGQGLEWIGNIFPDTTTTNYNEKFKGRVTLTRDTSISTAYMELSRLRSDDTAVYYCAREYYDGTYDAMDYWGQGTLVTVSS
VL: AIQMTQSPSSLSASVGDRVTITCKASQSVNNDVAWYQQKPGKAPKLLIYYASNRYTGVPSRFSGSGSGTDFTLTISSLQPEDFATYFCQQDYSSPRTFGQGTKLEIK
notes: humanized, human IgG1/kappa

The binders below were run against T4, hSEZ6-ECD-His (human, UniProt Q53EL9 20-925) (assay: bio-layer interferometry (ForteBio RED) or surface plasmon resonance (Biacore 2000) on human SEZ6-His; the table does not say which; column Hu Affinity (Kd, nM)).
T4 construct: the whole entry is named; also called recombinant SEZ6-His; human recombinant SEZ6-His
Binder B1 has a Kd of 23.1 nM. With B2 the Kd was 17.4 nM.

Target: T1, rat SEZ6 on RIN-m5F cells
Test: flow cytometry on RIN-m5F cells expressing rat SEZ6, verified by BLI or SPR on rat SEZ6-His
B1: no binding (tested: 5 µg/mL). B2: no binding (tested: 5 µg/mL). B3: no binding (tested: 5 µg/mL).

These binders were tested against T5, SEZ6 Sushi Domain 1 (amino acids 336-395) on yeast (human, UniProt Q53EL9 355-414) (assay: yeast display, flow cytometry;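 also: antibody binding to individual SEZ6 domains displayed on yeast, measured by flow cytometry, antibody at 50 nM purified or hybridoma supernatant diluted 1:2, 90 min on ice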).
T5 construct: yeast display
B4: binds. B5: binds. B6: binds. B7: binds. B8: binds.

What follows are binders tested against T2, SEZ6 N1 (amino acids 1-70) on yeast (assay: yeast display, flow cytometry;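 also: antibody binding to individual SEZ6 domains displayed on yeast, measured by flow cytometry, antibody at 50 nM purified or hybridoma supernatant diluted 1:2, 90 min on ice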).
B3: binds.

What follows are binders tested against T3, human SEZ6L ECD-His (assay: ELISA on plates coated with SEZ6L protein).
B1: no binding (tested: 1 µg/mL). B2: no binding (tested: 1 µg/mL). B3: no binding (tested: 1 µg/mL).

Each binder was assayed against T6, human SEZ6L2 ECD-His (human, UniProt Q6UXD5 28-843) (assay: ELISA on plates coated with SEZ6L2 protein).
T6 construct: whole entry named
T6 sequence (Q6UXD5 other isoform, or with tags, fused parts or gaps): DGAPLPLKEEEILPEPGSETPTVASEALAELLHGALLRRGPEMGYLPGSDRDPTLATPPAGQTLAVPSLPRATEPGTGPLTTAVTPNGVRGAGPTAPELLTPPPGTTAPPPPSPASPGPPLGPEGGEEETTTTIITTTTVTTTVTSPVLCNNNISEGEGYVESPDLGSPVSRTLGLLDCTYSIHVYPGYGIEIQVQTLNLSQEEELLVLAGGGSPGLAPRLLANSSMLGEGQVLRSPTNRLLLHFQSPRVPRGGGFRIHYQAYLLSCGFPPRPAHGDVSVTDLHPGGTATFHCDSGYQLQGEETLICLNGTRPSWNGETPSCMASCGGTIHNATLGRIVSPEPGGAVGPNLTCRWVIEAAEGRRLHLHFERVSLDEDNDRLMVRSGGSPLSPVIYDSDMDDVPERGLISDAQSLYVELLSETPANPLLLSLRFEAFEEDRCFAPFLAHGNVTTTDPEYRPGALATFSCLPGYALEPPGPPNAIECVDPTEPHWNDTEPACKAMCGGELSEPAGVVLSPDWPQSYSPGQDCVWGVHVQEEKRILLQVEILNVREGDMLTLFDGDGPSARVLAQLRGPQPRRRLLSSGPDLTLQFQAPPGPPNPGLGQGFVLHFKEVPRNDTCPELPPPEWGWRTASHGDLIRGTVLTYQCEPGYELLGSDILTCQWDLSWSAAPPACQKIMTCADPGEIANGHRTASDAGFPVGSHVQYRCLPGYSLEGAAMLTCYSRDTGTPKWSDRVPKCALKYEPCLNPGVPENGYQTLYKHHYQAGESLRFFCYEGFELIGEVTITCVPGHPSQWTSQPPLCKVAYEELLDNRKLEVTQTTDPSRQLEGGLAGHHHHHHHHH
B1: no binding (tested: 1 µg/mL). B2: no binding (tested: 1 µg/mL). B3: no binding (tested: 1 µg/mL).

The binders below were run against T4, hSEZ6-ECD-His (assay: SPR, Biacore 2000 (data not shown)).
B9: binds. B10: binds. B11: binds. B12: binds. B13: binds.

What follows are binders tested against T7, mouse SEZ6 on Neuro2a cells (mouse, UniProt Q7TSK2 20-991) (assay: flow cytometry on Neuro2a cells expressing mouse SEZ6).
T7 construct: endogenous on Neuro2a cells; also called murine SEZ6; mSEZ6
B1: no binding (tested: 5 µg/mL). B2: no binding (tested: 5 µg/mL). B3: no binding (tested: 5 µg/mL).
